Measured values from patent US20100098761A1, “Polymer Compositions For Biomedical And Material Applications” (University of Massachusetts Medical School, priority 2007, published 2010).

Test system: murine macrophage RAW264.7 cells
Test: Osteoclastic differentiation of RAW264.7 cells (TRAP stain)
Type: cell-based
Method: Grafts (5×5×1 mm, FlexBone 25% HA-25% TCP) were pre-absorbed with varying amounts of growth factors and cytokines to provide an exogenous supply for remodeling. […] The preferred loading dose of RANKL (10 ng/FlexBone graft) was determined by the osteoclastic differentiation of macrophage RAW264.7, induced by the RANKL released from the graft as indicated by positive TRAP stains (purple) of multinucleated cells on Day 6. […] Finally, the preferred loading dose of rhVEGF165 in stimulating the proliferation of human vascular endothelial cells in culture was determined to be 5 ng/graft.
Materials. The radical inhibitors in the commercial 2-hydroxyethyl methacrylate (HEMA, Aldrich) and ethylene glycol dimethacrylate (EGDMA, Aldrich) were removed via distillation under reduced pressure and by passing through a 4 Å molecular sieve column prior to use, respectively. […] In a typical procedure, 0-5.0 wt % TCH was dissolved in the mixture of freshly distilled monomer HEMA, 2% cross-linker EGDMA and viscous solvent ethylene glycol under bath-sonication, before 25 wt % HA, 25 wt % TCP, and the aqueous radical initiators ammonium persulfate and sodium metasulfite were added and thoroughly mixed (Table I). […] The compressive behavior of FlexBone in fully hydrated state as a function of TCH content was analyzed using a Q800 Dynamic Mechanical Analyzer (DMA, TA Instruments) equipped with a submersion compression fixture. […] An L-square was used to make sure that the sanded top and bottom surfaces were parallel prior to testing, and the final dimensions of each specimen were measured by a digital caliper. […] All stress-strain curves presented are based on the engineering stress and engineering strain recorded, assuming a fixed cross-section of the material defined at the start of the test. […] The release of TCH from FlexBone vs. pHEMA hydrogel in water as a function of time and the initial TCH incorporation was monitored over 1 week at 357.9 nm. […]

B1: rmRANKL: recombinant receptor activator of nuclear factor κB ligand, E. coli expressed (protein, UniProt O35235 139-316, looked up)
Tumor necrosis factor ligand …: FSGAPAMMEGSWLDVAQRGKPEAQPFAHLTINAASIPSGSHKVTLSSWYHDRGWAKISNMTLSNGKLRVNQDGFYYLYANICFRHHETSGSVPTDYLQLMVYVVKTSIKIPSSHNLMKGGSTKNWSGNSEFHFYSINVGGFFKLRAGEEISIQVSNPSLLDPDQDATYFGAFKVQDID
In the case of B1, the osteoclast differentiation (continued supplement of 10-ng every other day, day six) is reported as “formation of TRAP-positive multinucleated osteoclasts”, the preferred loading dose (determined by osteoclastic differentiation of RAW264.7, TRAP stains Day 6) is reported as 10 ng/FlexBone graft and the osteoclast differentiation (single supplement of 10-ng directly to culture) is reported as “not sufficient in inducing the osteoclast differentiation”.
